Experimental data: US7001748
Each block holds one substance with its values, some of them ahead of it.

Experiments:
[1] = molecular target: M2(4) (derivative of M2 containing the C-terminal linker of DEBS module 4; plasmid pST179) (UniProt Q03133); assay: fit of the rate of tetraketide formation against (5)M3+TE concentration (0.5-5 µM) at fixed 0.5 µM M2(4); kinetic saturation curve
[2] = molecular target: M2 (module 2 of DEBS with the natural C-terminal linker for module 2; plasmid pBP19) (UniProt Q03133); assay: fit of the rate of tetraketide formation against M3+TE concentration (0.4-4 µM) at fixed 1.0 µM M2; kinetic saturation curve
[3] = molecular target: (5)M5+TE (M5+TE; plasmid pRSG46) (UniProt Q03133); assay: cell-based or functional assay

Kd [1]: 2.1 µM
Substance: (5)M3+TE (derivative of M3+TE where the natural N-terminal linker has been replaced with the N-terminal linker of module 5 of DEBS; plasmid pST132) (from UniProt Q03133 2-41; Q03132 33-1467; Q03133 2960-3166) (enzyme)

Kd [2]: 1.1 µM
Substance: M3+TE (module 3 of DEBS with its own N-terminal linker and with the thioesterase fused to the C-terminus; plasmid pRSG34) (from UniProt Q03132 33-1467; Q03133 2960-3166) (enzyme)

maximal rate increase in the elongation of 4a versus 2a [3]: > 40 fold
Substance: acyl-ACP4(4) adduct 4a ((2S,3R)-diketide on ACP4(4)) (from UniProt Q03132 3398-3567)
